Measured values: the supplement of paper PMC10567573

B1: INTS3 (parent)
chain: KKREFRFHPIKETVVEEPVDITPY

Variants of: B1
Test: protein stability index of a GFP-peptide fusion (GPS, HEK-293T) (PSI 1-6); higher = more stable
Conditions: c terminus: a fixed tail appended
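Further: lentivirally expressed fusions sorted by FACS into six bins by GFP to DsRed ratio, PSI derived from sequencing read proportions per bin multiplied by bin number.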

Variant | protein stability index
KRREFRFHPIKETVVEEPVDITPY [K2R] | 2.29
KDREFRFHPIKETVVEEPVDITPY [K2D] | 2.53
KEREFRFHPIKETVVEEPVDITPY [K2E] | 2.55
KTREFRFHPIKETVVEEPVDITPY [K2T] | 2.14
KQREFRFHPIKETVVEEPVDITPY [K2Q] | 2.17
KVREFRFHPIKETVVEEPVDITPY [K2V] | 1.37
KAREFRFHPIKETVVEEPVDITPY [K2A] | 1.56
KWREFRFHPIKETVVEEPVDITPY [K2W] | 2.03
KMREFRFHPIKETVVEEPVDITPY [K2M] | 2.2
KNREFRFHPIKETVVEEPVDITPY [K2N] | 1.82
KIREFRFHPIKETVVEEPVDITPY [K2I] | 2.55
KPREFRFHPIKETVVEEPVDITPY [K2P] | 2.5
KGREFRFHPIKETVVEEPVDITPY [K2G] | 2.11
KSREFRFHPIKETVVEEPVDITPY [K2S] | 2.38
KCREFRFHPIKETVVEEPVDITPY [K2C] | 1.9
KKREFRFHPVKETVVEEPVDITPY [I10V] | 1.98
KKREFRFHPLKETVVEEPVDITPY [I10L] | 1.75
KKREFRFHPHKETVVEEPVDITPY [I10H] | 2.09
KKREFRFHPKKETVVEEPVDITPY [I10K] | 2.02
KKREFRFHPYKETVVEEPVDITPY [I10Y] | 4.54
KKREFRFHPMKETVVEEPVDITPY [I10M] | 1.87
KKREFRFHPGKETVVEEPVDITPY [I10G] | 2.3
KKREFRFHPSKETVVEEPVDITPY [I10S] | 1.64
KKREFRFHPFKETVVEEPVDITPY [I10F] | 2.69

Variant | protein stability index
KKREFRFHPTKETVVEEPVDITPY [I10T] | 2.27
KKREFRFHPWKETVVEEPVDITPY [I10W] | 3.25
KKREFRFHPPKETVVEEPVDITPY [I10P] | 1.9
KKREFRFHPQKETVVEEPVDITPY [I10Q] | 1.83
KKREFRFHPEKETVVEEPVDITPY [I10E] | 2.4
KKREFRFHPAKETVVEEPVDITPY [I10A] | 2.08
KKREFRFHPNKETVVEEPVDITPY [I10N] | 2.84
KKREFRFHPCKETVVEEPVDITPY [I10C] | 1.51
KKREFRFHPRKETVVEEPVDITPY [I10R] | 1.41
KKREFRFHPDKETVVEEPVDITPY [I10D] | 2.28
KKREFIFHPIKETVVEEPVDITPY [R6I] | 4.01
KKREFGFHPIKETVVEEPVDITPY [R6G] | 4.57
KKREFDFHPIKETVVEEPVDITPY [R6D] | 4.24
KKREFAFHPIKETVVEEPVDITPY [R6A] | 3.97
KKREFKFHPIKETVVEEPVDITPY [R6K] | 4.23
KKREFHFHPIKETVVEEPVDITPY [R6H] | 4.52
KKREFSFHPIKETVVEEPVDITPY [R6S] | 4.31
KKREFNFHPIKETVVEEPVDITPY [R6N] | 4.25
KKREFTFHPIKETVVEEPVDITPY [R6T] | 4.38
KKREFPFHPIKETVVEEPVDITPY [R6P] | 4.38
KKREFEFHPIKETVVEEPVDITPY [R6E] | 4.48
KKREFYFHPIKETVVEEPVDITPY [R6Y] | 3.66
KKREFFFHPIKETVVEEPVDITPY [R6F] | 2.57
